According to the supplement of paper PMC10126150:
± gives the standard deviation of the averaged measurements.

Test system: ATP
Assay: switch fluorescence ratio, 500 uM ATP over buffer (Cy3 cluster intensity, sum of 5 cycles each) (fold (ratio)); higher = stronger signal-on switching upon ATP binding; sequences stand for … in TCGTCGGCAGCGTCAGATGTGTATAAGAGACAGTTTTTTTTTTTTTTTTTTTTTTTTT…TC
Details: aptamer strand: ATP DNA aptamer (quencher-CACCTGGGGGAGTATTGCGGAGGAAGG + anchor), 100 nM annealed; ATP concentration: 500 uM
Method in brief: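 After annealing to 100 nM quencher-labelled ATP aptamer, Cy3-labelled switching-strand clusters on a modified Illumina MiSeq flow-cell were imaged in selection buffer. A second image followed after 15 min with 500 uM ATP at 22 °C, and five such buffer/ATP cycles were done, each separated by NaOH stripping and re-annealing. The fluorescence ratio, averaged per switch-domain sequence, is summed target-cycle over summed buffer-cycle Cy3 intensity per cluster, with clusters outside 100-1000 RFU excluded.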
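Further: ATP exposure 15 min at 22 °C before imaging.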

Row | Sequence | switch fluorescence ratio
1 | AAATAATTGT | 1.019 ± 0.01
2 | AAATAATTTT | 1.01 ± 0.027
3 | AAATACTTGG | 1.04 ± 0.055
4 | AAATACTTTT | 1.03 ± 0.021
5 | AAATAGAAGA | 1.03 ± 0.038
6 | AAATAGGGGA | 0.989 ± 0.039
7 | AAATAGGTTA | 1.02 ± 0.046
8 | AAATAGGTTT | 1 ± 0.044
9 | AAATATCGGT | 0.971 ± 0.018
10 | AAATATGGTG | 1 ± 0.021
11 | AAATATTGTT | 0.976 ± 0.027
12 | AAATATTTCG | 1.02 ± 0.03
13 | AAATCATATG | 1.08 ± 0.087
14 | AAATCATTGT | 1 ± 0.014
15 | AAATCCGATT | 1.01 ± 0.011
16 | AAATCCTTAT | 0.996 ± 0.063
17 | AAATCGAGCG | 0.969 ± 0.025
18 | AAATCGCATG | 1.03 ± 0.019
19 | AAATCGGAAA | 0.98 ± 0.028
20 | AAATCGTAGG | 0.963 ± 0.054
21 | AAATGATCTA | 1.01 ± 0.029
22 | AAATGCACAC | 1.107 ± 0.0021
23 | AAATGCAGGG | 1.01 ± 0.055
24 | AAATGCCACG | 1.06 ± 0.017
25 | AAATGCGGGG | 0.978 ± 0.036

Row | Sequence | switch fluorescence ratio
26 | AAATGGATTT | 1.01 ± 0.085
27 | AAATGGCCGG | 0.996 ± 0.024
28 | AAATGGTAGG | 0.996 ± 0.0086
29 | AAATGTCAAA | 0.986 ± 0.042
30 | AAATGTGGCG | 1.03 ± 0.011
31 | AAATGTTATC | 0.986 ± 0.042
32 | AAATTAAATT | 0.996 ± 0.039
33 | AAATTAATTT | 1.02 ± 0.043
34 | AAATTAGGGG | 0.9908 ± 0.0085
35 | AAATTAGTG | 1.05 ± 0.059
36 | AAATTCATTG | 0.969 ± 0.04
37 | AAATTCGATT | 1.032 ± 0.0037
38 | AAATTCGGGT | 0.981 ± 0.016
39 | AAATTCGGTG | 0.999 ± 0.016
40 | AAATTGAGGC | 0.96 ± 0.027
41 | AAATTGCCTG | 1.01 ± 0.047
42 | AAATTGCTGC | 1.01 ± 0.036
43 | AAATTGGACT | 1.02 ± 0.033
44 | AAATTGGGCA | 0.997 ± 0.029
45 | AAATTGGGGA | 0.986 ± 0.014
46 | AAATTGGTAA | 1 ± 0.017
47 | AAATTTAGCA | 0.99 ± 0.052
48 | AAATTTGGCT | 0.992 ± 0.071
49 | AAATTTTTGG | 1.01 ± 0.045
50 | AACAAACCGT | 1.1 ± 0.017

Row | Sequence | switch fluorescence ratio
51 | AACAAGGGCT | 1.04 ± 0.014
52 | AACAATGAAG | 1.03 ± 0.022
53 | AACAATGGGG | 1.03 ± 0.077
54 | AACACATGCG | 0.9936 ± 0.0015
55 | AACACCAGGT | 1.38 ± 0.45
56 | AACACCTAGG | 1.02 ± 0.028
57 | AACACGAATT | 0.998 ± 0.025
58 | AACAGAAGAG | 1.007 ± 0.01
59 | AACAGATTTT | 0.998 ± 0.011
60 | AACAGCAGGC | 1.16 ± 0.013
61 | AACAGCTGTT | 0.972 ± 0.035
62 | AACAGGCTGG | 1.01 ± 0.013
63 | AACAGGGAGG | 0.993 ± 0.032
64 | AACAGTACAC | 1.22 ± 0.023
65 | AACATGCTTA | 0.972 ± 0.02
66 | AACATGTCTC | 1.01 ± 0.043
67 | AACATTAAAT | 1.1 ± 0.1
68 | AACCAGCGGA | 0.994 ± 0.019
69 | AACCATTGCT | 1.048 ± 0.0053
70 | AACCCCGGGG | 1.02 ± 0.067
71 | AACCCGGGAA | 0.995 ± 0.042
72 | AACCGCGGTG | 0.984 ± 0.011
73 | AACCGCTTGG | 0.995 ± 0.056
74 | AACCGGATTC | 1 ± 0.02
75 | AACCGGGGGT | 0.991 ± 0.038

Row | Sequence | switch fluorescence ratio
76 | AACCTACGGC | 1.38 ± 0.083
77 | AACCTATTCT | 1.15 ± 0.17
78 | AACCTTTATA | 1.01 ± 0.012
79 | AACCTTTCTT | 1.46 ± 0.041
80 | AACGAAAGGG | 1.03 ± 0.074
81 | AACGACACAT | 1.46 ± 0.014
82 | AACGACGACG | 1.16 ± 0.05
83 | AACGATGAAG | 1.01 ± 0.043
84 | AACGATTTAT | 0.9936 ± 0.0068
85 | AACGCCGGCC | 1.01 ± 0.057
86 | AACGGCCCTG | 1.03 ± 0.026
87 | AACGGCTA | 1.047 ± 0.0045
88 | AACGGCTTCA | 1.057 ± 0.0029
89 | AACGGGCCAC | 1.079 ± 0.0077
90 | AACGGGGACT | 1.05 ± 0.063
91 | AACGGGGGAG | 0.979 ± 0.021
92 | AACGGGGTTA | 1.04 ± 0.06
93 | AACGGGTGAG | 0.9856 ± 0.0092
94 | AACGGTCAAA | 1.02 ± 0.028
95 | AACGGTTAAA | 1.011 ± 0.0022
96 | AACGTAGTTT | 1.02 ± 0.029
97 | AACGTCTTTT | 0.9826 ± 0.0038
98 | AACGTGGCGT | 1.023 ± 0.0066
99 | AACGTGTTGG | 1.013 ± 0.0015
100 | AACGTTAGGT | 0.9704 ± 0.0022

Row | Sequence | switch fluorescence ratio
101 | AACGTTGGAC | 1.1 ± 0.029
102 | AACGTTGGGC | 1.03 ± 0.059
103 | AACGTTGGTT | 1.01 ± 0.012
104 | AACGTTGTTG | 0.976 ± 0.044
105 | AACTAAGGGA | 0.9949 ± 0.0068
106 | AACTAAGTGG | 0.967 ± 0.017
107 | AACTACTGTG | 1.03 ± 0.056
108 | AACTAGACCT | 1.42 ± 0.019
109 | AACTAGGTCG | 0.974 ± 0.058
110 | AACTATAAGA | 1.06 ± 0.1
111 | AACTATGAAC | 1.03 ± 0.029
112 | AACTATTAGA | 0.952 ± 0.018
113 | AACTCAGGCG | 1.039 ± 0.0066
114 | AACTCCACGA | 1.26 ± 0.32
115 | AACTCCAGGT | 1.2 ± 0.011
116 | AACTCGGTCC | 1 ± 0.061
117 | AACTCGGTCG | 1.04 ± 0.051
118 | AACTCTCGGG | 1 ± 0.014
119 | AACTCTGGTT | 0.968 ± 0.048
120 | AACTCTGTCT | 1 ± 0.032
121 | AACTGAGGGA | 1.022 ± 0.0069
122 | AACTGCTATC | 1.22 ± 0.036
123 | AACTGGAACT | 1.03 ± 0.032
124 | AACTGTTGG | 0.9895 ± 0.006
125 | AACTTAAGGG | 1.003 ± 0.0092

Row | Sequence | switch fluorescence ratio
126 | AACTTAATG | 0.9926 ± 0.0025
127 | AACTTACACG | 1.2 ± 0.018
128 | AACTTATCGG | 1.01 ± 0.036
129 | AACTTGGGGG | 1.021 ± 0.0048
130 | AACTTGTGTG | 0.989 ± 0.042
131 | AACTTTGGGG | 1.01 ± 0.068
132 | AAGAAAGGCT | 0.982 ± 0.033
133 | AAGAAAGTCT | 0.995 ± 0.068
134 | AAGAAATGTA | 1.013 ± 0.0063
135 | AAGAAATTGG | 0.9446 ± 0.0027
136 | AAGAACGGTA | 1.06 ± 0.043
137 | AAGAAGAGGG | 1.02 ± 0.021
138 | AAGAAGGGAA | 1.004 ± 0.0068
139 | AAGAAGTTGG | 0.985 ± 0.038
140 | AAGAATATAT | 0.991 ± 0.018
141 | AAGAATCTGC | 0.985 ± 0.051
142 | AAGAATGTG | 0.9474 ± 0.0022
143 | AAGAATTTTT | 1 ± 0.023
144 | AAGACAGGCC | 1.03 ± 0.014
145 | AAGACGAATT | 1.01 ± 0.058
146 | AAGACGTGGA | 0.9993 ± 0.0064
147 | AAGACGTGGT | 0.992 ± 0.008
148 | AAGACTGAGC | 1.033 ± 0.0071
149 | AAGACTTAT | 1.01 ± 0.053
150 | AAGACTTTGT | 1 ± 0.024

Row | Sequence | switch fluorescence ratio
151 | AAGAGAAGTT | 0.9938 ± 0.0088
152 | AAGAGAATGG | 0.984 ± 0.052
153 | AAGAGACAGA | 1.25 ± 0.066
154 | AAGAGAGTTT | 0.9837 ± 0.00066
155 | AAGAGCCAAA | 0.9735 ± 0.0097
156 | AAGAGCGGAC | 1.11 ± 0.047
157 | AAGAGCGGGG | 0.989 ± 0.043
158 | AAGAGGACGC | 1 ± 0.066
159 | AAGAGGCGGT | 1.01 ± 0.022
160 | AAGAGGGCGT | 1.012 ± 0.0064
161 | AAGAGGGGG | 0.977 ± 0.026
162 | AAGAGGTCG | 1.02 ± 0.046
163 | AAGAGGTGCA | 0.989 ± 0.034
164 | AAGAGGTTAC | 0.973 ± 0.049
165 | AAGAGTCTT | 0.963 ± 0.042
166 | AAGAGTGGGG | 1.02 ± 0.049
167 | AAGAGTTCTG | 1 ± 0.011
168 | AAGAGTTGAC | 0.947 ± 0.059
169 | AAGATAACCT | 1.87 ± 0.23
170 | AAGATACGCT | 1.06 ± 0.065
171 | AAGATATCTG | 1.01 ± 0.032
172 | AAGATCATGG | 0.98235 ± 0.00028
173 | AAGATCCGCT | 1.13 ± 0.027
174 | AAGATGACTA | 0.986 ± 0.042
175 | AAGATGGGGC | 0.998 ± 0.038

Row | Sequence | switch fluorescence ratio
176 | AAGATGGGGG | 0.998 ± 0.033
177 | AAGATGGTTA | 0.97 ± 0.01
178 | AAGATGTTTT | 1.01 ± 0.04
179 | AAGATTAGTC | 0.974 ± 0.041
180 | AAGATTGTCG | 1.14 ± 0.039
181 | AAGATTGTGT | 0.9849 ± 0.0017
182 | AAGATTTTGA | 0.936 ± 0.063
183 | AAGATTTTTG | 1.01 ± 0.041
184 | AAGCAAAGGT | 1.02 ± 0.027
185 | AAGCAAGGGA | 1.065 ± 0.01
186 | AAGCAGATAG | 1.46 ± 0.048
187 | AAGCAGTCGA | 1.09 ± 0.015
188 | AAGCATCACG | 1.07 ± 0.011
189 | AAGCCCTACA | 1.01 ± 0.03
190 | AAGCCGATTC | 1.03 ± 0.0068
191 | AAGCCGGATG | 1.005 ± 0.0095
192 | AAGCCGGGGG | 0.987 ± 0.019
193 | AAGCCTTTAG | 0.974 ± 0.047
194 | AAGCGAACAT | 1.08 ± 0.076
195 | AAGCGAGG | 0.9872 ± 0.0032
196 | AAGCGCGAGG | 1.03 ± 0.022
197 | AAGCGGCGGG | 1.01 ± 0.019
198 | AAGCGGGAGC | 1.026 ± 0.0049
199 | AAGCGGTATC | 1.03 ± 0.021
200 | AAGCGGTCCG | 1.02 ± 0.025
